Data from patent US12115223B2, “Conjugate of biotin-modified dimer and phthalocyanine dye” (THE UNIVERSITY OF TOKYO, priority 2021, dated 2024).

Key:
[1] = target: T1, Recombinant Human CEACAM-5/CD66e Protein (Homo sapiens, UniProt P06731); assay: SPR (Biacore T200) affinity of CEA-V2122 for the antigen CEACAM5; format: binding; details: bivalent analysis
T1 construct: purchased R & D SYSTEMS
T1 sequence (P06731 35-676): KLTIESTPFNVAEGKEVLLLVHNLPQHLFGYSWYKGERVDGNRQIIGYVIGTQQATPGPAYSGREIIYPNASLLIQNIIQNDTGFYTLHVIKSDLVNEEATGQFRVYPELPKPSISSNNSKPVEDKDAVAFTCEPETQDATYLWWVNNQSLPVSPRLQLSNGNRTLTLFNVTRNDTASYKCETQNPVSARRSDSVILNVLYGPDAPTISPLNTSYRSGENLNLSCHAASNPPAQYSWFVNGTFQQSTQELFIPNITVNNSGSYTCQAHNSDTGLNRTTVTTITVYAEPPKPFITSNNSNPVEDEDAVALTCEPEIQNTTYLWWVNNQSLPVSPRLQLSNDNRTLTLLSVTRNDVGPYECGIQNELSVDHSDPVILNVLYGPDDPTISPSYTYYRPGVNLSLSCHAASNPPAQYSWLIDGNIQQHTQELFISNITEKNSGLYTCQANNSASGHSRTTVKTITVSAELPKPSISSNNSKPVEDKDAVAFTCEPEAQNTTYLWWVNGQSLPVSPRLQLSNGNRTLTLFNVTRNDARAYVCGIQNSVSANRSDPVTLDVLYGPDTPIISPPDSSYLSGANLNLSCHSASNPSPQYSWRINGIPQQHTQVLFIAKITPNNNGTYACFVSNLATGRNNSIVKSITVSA
Experimental: The affinity of CEA-V2122 for the antigen CEACAM5 was evaluated using a surface plasmon resonance (SPR) measuring device, Biacore T200 (GE Healthcare Life Sciences). Specifically, Recombinant Human CEACAM-5/CD66e Protein, CF (R & D SYSTEMS) was immobilized on Sensor Chip CMS (GE Healthcare Life Sciences) using an amine-coupling kit (GE Healthcare Life Sciences). The fmal amount of the ligand immobilized was 279 RU. Moreover, with regard to the purified CEA-V2122, two-fold serial dilutions from 1E-08 M to 6.25E-10 M were prepared as analytes. Regarding interaction analysis, data were obtained by single-cycle kinetics analysis. Using Biacore T200 Evaluation Software, version 2.0, the obtained data were subjected to curve fitting in a bivalent analysis mode, and the following values were obtained: ka1=3.208E+5, and kd1=3.461E-7.

[2] = test system: CEACAM5-positive MKN-45 cells and CEACAM5-negative DLD1 cells; assay: Cell staining of CEACAM5-expressing cell line using FITC-labeled CEA-V2122; format: cell-based, human; details: 20 nM CEA-V2122-FITC
Experimental: In order to stain a CEACAM5 expression-positive cancer cell line, FITC labeling was carried out on the cell line, using 100 μg of a purified CEA-V2122 protein. Specifically, labeling was carried out using Fluorescein Labeling Kit-NH2 (DOJINDO LABORATORIES) in accordance with the dosage and administration described in the operating manual included with the kit, and the obtained product was defined to be CEA-V2122-FITC. Specific staining of the CEACAM5 expression-positive cancer cell line is as follows. That is, CEACAM5-positive human stomach cancer-derived MKN-45 cells and CEACAM5-negative human colon cancer-derived DLD1 cells were each seeded on a CELLSTAR, μClear, 96-well plate (Greiner) to a cell density of 2.0×10^4 cells/well, and thereafter, the cells were cultured overnight. Subsequently, a culture solution containing 20 nM CEA-V2122-FITC and 1 μM Hoechist was added to the 96-well plate to a concentration of 100 μL/well, and the obtained mixture was then reacted at 4° C. for 30 minutes. Thereafter, each image was taken using In Cell Analyzer 6000 (GE Healthcare Life Sciences).

B1: CEA-V2122: scFv-type anti-CEACAM5 antibody bound with mutant streptavidin V2122 via an amino acid linker (SEQ ID NO: 3) (protein)
chain: QVKLEQSGAEVVKPGASVKLSCKASGFNIKDSYMHWLRQGPGQRLEWIGWIDPENGDTEYAPKFQGKATFTTDTSANTAYLGLSSLRPEDTAVYYCNEGTPTGPYYFDYWGQGTLVTVSSGGGGSGGGGSGGGGSENVLTQSPSSMSVSVGDRVNIACSASSSVPYMHWLQQKPGKSPKLLIYLTSNLASGVPSRFSGSGSGTDYSLTISSVQPEDAATYYCQQRSSYPLTFGGGTKLEIKGGGGSGGGGAEAGITGTWSDQLGDTFIVTAGADGALTGTYENAVGGAESRYVLTGRYDSAPATDGSGTALGWTVAWKNNSKNAHSATTWSGQYVGGADAKINTQWLLTSGTTNANAWKSTLVGHDTFTKVKPSAASHHHHHH
KD=kd1/ka1 [1]: 1.078E-12

B2: CEA-V2122-FITC: purified CEA-V2122 protein labeled using Fluorescein Labeling Kit-NH2 (conjugate)
chain: B1 chain
localisation of CEACAM5 after binding (time-series images of MKN45 cells, FIG. 6) [2]: the CEACAM5 stays on the surface of the cell membrane
recognition of CEACAM5 on cells (stained cell images, FIG. 5) ([2]; 4° C., 30 minutes): specifically recognizes CEACAM5 on the surface of the cell membrane
